Measured values taken from article PMC4947163, “RNA polymerase I–Rrn3 complex at 4.8 Å resolution” (Nature Communications, 2016).

B1: Pol I subunit A34.5 (natural protein, S. cerevisiae, UniProt P47006 1-233, looked up)
chain: MSKLSKDYVSDSDSDDEVISNEFSIPDGFKKCKHLKNFPLNGDNKKKAKQQQVWLIKFPSNVDISKLKSLPVDFESSTTMTIDKHDYKIMDDTDIESSLTQDNLSNMTLLVPSESKESLKIASTAKDNAPLQFDKVFSVSETAKIPAIDYSKVRVPRKDVPKVEGLKLEHFATGYDAEDFHVAEEVKENKKEPKKRSHHDDEEESSEKKKKKKEKREKREKKDKKDKKKKHRD
notes: Pol I subunit A34.5, S. cerevisiae; Stood in the assay as a subunit of the whole Pol I; source: endogenous, purified from yeast as part of Pol I
B2: Rrn3 (natural protein, S. cerevisiae)
chain: MMAFENTSKRPPQDFVAPIDQKKRKVQFSDSTGLVTLQPEEIKDEVFSAAMYSRFVKSALDDLDKNDSTQIGIIANQVALPSKNPERINDKNLNILLDILSSNINRIESSRGTFLIQSIINFEKWWELPPHTLSKYIYFIKILCSSIPKWWQDVSMILVSCFILPIKQTVCHHDMLKYFLRMIPSSMGFIDTYLAKFFPNKNDTRRKLVNYTSNLLKLRGYCSELGFQIWSLLIEKIISIDVELQNELDELDDDVDDDDLEEVDLEDDDDLDDDSGDDDDENCGNSNEELRSGAADGSQSDSEDMDIIEGMDGTEEYNVELTQGIKELSTKLDSILTLVSTHVEEQVTPESLESGEGVGVFNTLTTLFKTHVLPTYYTRSIQYIMFHVSQQQLELMDSFLVTLIDISFAVNEAAEKKIKSLQYLGSYIARAKKLSRTQIIFVASYLTSWLNRYVIEREEEVDQRGGMERFKHFYAAFQALCYIFCFRHNIFRDTDGNWECELDKFFQRMVISKFNPLKFCNENVMLMFARIAQQESVAYCFSIIENNNNERLRGIIGKADSDKKENSAQANTTSSSWSLATRQQFIDLQSYFPYDPLFLKNYKILMKEYYIEWSEASGEYESDGSDD
notes: Rrn3, Pol I-specific initiation factor, S. cerevisiae; also called Pol I-specific initiation factor Rrn3
B3: Pol I subunit AC19 (natural protein, S. cerevisiae, UniProt P28000 1-142, looked up)
chain: MTEDIEQKKTATEVTPQEPKHIQEEEEQDVDMTGDEEQEEEPDREKIKLLTQATSEDGTSASFQIVEEDHTLGNALRYVIMKNPDVEFCGYSIPHPSENLLNIRIQTYGETTAVDALQKGLKDLMDLCDVVESKFTEKIKSM
notes: Pol I subunit AC19, S. cerevisiae; Stood in the assay as a subunit of the whole Pol I; source: endogenous, purified from yeast as part of Pol I
B4: Pol I subunit AC40 (natural protein, S. cerevisiae, UniProt P07703 1-335, looked up)
chain: MSNIVGIEYNRVTNTTSTDFPGFSKDAENEWNVEKFKKDFEVNISSLDAREANFDLINIDTSIANAFRRIMISEVPSVAAEYVYFFNNTSVIQDEVLAHRIGLVPLKVDPDMLTWVDSNLPDDEKFTDENTIVLSLNVKCTRNPDAPKGSTDPKELYNNAHVYARDLKFEPQGRQSTTFADCPVVPADPDILLAKLRPGQEISLKAHCILGIGGDHAKFSPVSTASYRLLPQINILQPIKGESARRFQKCFPPGVIGIDEGSDEAYVKDARKDTVSREVLRYEEFADKVKLGRVRNHFIFNVESAGAMTPEEIFFKSVRILKNKAEYLKNCPITQ
notes: Pol I subunit AC40, S. cerevisiae; Stood in the assay as a subunit of the whole Pol I; source: endogenous, purified from yeast as part of Pol I

Legend:
Experiment in all cases: cryo-EM structure; Pol I incubated with fivefold excess of Rrn3 and CF overnight at 4 °C, SEC in buffer A (150 mM sodium chloride, 5 mM HEPES pH 7.8, 1 mM magnesium chloride, 10 μM zinc chloride, 5 mM dithiothreitol), crosslinked with 1 mM BS3; single-particle reconstruction at 4.8 Å from 63,445 particles; crystal structures fitted as rigid bodies
Conditions in all cases: both partners purified
[1] = target: T1, Pol I subunit A49 (S. cerevisiae, UniProt Q01080 1-415)
T1 construct: Pol I subunit A49, S. cerevisiae; Stood in the assay as a subunit of the whole Pol I; source: endogenous, purified from yeast as part of Pol I
T1 sequence (looked up): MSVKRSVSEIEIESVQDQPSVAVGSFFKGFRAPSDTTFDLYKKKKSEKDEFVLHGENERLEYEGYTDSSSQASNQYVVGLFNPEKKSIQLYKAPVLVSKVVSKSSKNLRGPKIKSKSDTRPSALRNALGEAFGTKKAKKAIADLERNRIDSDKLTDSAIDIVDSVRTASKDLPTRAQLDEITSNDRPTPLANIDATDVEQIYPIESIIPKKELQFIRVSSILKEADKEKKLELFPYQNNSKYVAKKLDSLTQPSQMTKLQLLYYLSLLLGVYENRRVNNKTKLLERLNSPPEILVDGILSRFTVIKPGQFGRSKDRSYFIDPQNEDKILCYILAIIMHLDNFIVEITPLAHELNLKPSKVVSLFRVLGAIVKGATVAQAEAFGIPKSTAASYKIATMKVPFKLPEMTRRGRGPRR

[2] = target: T2, Pol I subunit A135 (S. cerevisiae, UniProt P22138 1-1203)
T2 construct: Pol I subunit A135, S. cerevisiae; Stood in the assay as a subunit of the whole Pol I; source: endogenous, purified from yeast as part of Pol I
T2 sequence (looked up): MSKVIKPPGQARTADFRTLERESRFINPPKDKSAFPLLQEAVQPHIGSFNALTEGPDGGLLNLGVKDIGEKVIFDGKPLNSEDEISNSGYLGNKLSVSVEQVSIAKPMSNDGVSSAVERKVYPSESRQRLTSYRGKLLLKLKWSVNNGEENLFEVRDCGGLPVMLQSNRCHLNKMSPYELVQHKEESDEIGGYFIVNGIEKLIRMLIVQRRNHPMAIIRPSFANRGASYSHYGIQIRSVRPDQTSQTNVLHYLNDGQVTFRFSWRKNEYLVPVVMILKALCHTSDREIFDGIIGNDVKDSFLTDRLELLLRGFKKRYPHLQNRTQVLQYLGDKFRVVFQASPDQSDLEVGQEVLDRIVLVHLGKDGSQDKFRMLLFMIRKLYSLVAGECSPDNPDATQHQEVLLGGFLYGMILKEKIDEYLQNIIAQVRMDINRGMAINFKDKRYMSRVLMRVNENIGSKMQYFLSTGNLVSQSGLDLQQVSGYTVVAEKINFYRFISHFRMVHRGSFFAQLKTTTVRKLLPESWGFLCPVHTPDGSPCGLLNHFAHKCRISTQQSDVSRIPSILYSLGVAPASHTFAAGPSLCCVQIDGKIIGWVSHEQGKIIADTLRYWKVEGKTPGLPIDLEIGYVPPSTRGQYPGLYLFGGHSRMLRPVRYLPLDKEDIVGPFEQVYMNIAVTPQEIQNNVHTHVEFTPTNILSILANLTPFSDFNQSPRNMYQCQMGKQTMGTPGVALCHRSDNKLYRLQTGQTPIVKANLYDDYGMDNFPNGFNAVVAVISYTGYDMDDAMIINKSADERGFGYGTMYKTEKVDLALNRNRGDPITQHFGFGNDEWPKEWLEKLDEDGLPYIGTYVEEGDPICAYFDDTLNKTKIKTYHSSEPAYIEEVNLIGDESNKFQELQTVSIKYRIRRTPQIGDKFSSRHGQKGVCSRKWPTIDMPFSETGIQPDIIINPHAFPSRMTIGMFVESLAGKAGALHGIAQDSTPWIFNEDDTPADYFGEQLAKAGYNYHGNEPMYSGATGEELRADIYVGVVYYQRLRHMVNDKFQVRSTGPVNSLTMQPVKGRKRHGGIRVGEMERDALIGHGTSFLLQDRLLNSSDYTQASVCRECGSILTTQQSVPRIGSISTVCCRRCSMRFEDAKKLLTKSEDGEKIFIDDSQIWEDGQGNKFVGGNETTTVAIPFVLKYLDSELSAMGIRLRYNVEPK

[3] = target: T3, Pol I subunit A190 (S. cerevisiae, UniProt P10964 1-1664)
T3 construct: Pol I subunit A190, S. cerevisiae; Stood in the assay as a subunit of the whole Pol I; source: endogenous, purified from yeast as part of Pol I
T3 sequence (P10964 whole entry): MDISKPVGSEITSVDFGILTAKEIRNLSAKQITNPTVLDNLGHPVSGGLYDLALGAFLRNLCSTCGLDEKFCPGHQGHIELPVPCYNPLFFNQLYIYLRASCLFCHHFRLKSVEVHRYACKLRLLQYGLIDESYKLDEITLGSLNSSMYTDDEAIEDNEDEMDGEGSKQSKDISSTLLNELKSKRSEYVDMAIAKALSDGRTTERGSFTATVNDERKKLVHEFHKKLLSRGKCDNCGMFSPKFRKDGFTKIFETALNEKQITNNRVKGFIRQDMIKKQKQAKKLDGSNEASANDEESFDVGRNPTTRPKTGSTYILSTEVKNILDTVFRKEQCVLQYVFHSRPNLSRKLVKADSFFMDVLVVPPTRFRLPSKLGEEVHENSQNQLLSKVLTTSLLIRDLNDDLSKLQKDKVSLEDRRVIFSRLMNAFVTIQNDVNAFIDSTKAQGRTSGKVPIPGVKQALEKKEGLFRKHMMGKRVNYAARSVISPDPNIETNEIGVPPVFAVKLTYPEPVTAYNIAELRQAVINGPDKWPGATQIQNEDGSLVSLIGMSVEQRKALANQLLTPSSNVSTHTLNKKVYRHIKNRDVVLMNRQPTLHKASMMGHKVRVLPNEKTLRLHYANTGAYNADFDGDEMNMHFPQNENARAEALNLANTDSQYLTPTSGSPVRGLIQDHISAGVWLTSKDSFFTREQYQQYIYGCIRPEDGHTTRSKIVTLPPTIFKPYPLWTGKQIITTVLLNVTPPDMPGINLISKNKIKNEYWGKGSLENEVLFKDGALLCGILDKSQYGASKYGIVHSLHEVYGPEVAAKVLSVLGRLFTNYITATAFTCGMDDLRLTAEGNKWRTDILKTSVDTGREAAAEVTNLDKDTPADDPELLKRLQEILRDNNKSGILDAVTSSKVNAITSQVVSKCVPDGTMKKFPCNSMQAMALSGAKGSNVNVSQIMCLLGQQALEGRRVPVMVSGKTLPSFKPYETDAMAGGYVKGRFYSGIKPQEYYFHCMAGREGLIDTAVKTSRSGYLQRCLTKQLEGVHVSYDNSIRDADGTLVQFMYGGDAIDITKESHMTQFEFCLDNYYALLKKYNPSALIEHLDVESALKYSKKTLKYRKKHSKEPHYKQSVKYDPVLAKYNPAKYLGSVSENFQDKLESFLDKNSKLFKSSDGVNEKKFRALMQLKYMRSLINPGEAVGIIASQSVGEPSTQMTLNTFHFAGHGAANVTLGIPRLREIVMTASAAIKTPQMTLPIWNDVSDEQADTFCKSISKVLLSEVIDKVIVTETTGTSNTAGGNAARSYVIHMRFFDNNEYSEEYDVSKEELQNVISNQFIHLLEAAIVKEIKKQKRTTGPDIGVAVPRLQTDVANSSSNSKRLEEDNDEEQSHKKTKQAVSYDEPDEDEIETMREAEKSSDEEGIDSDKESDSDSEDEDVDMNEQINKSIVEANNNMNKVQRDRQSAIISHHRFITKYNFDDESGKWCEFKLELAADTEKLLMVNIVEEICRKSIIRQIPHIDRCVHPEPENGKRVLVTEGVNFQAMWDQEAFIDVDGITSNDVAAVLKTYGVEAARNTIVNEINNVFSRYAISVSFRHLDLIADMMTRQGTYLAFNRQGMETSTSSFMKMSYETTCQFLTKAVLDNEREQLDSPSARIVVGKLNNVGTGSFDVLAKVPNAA

[4] = target: B2
[5] = target: B4

B1: binds [1].

B2: binds [2]; binds [3].

B3: binds [4]; binds [5].

B4: binds [4].
